Data: patent US20210122810A1 (Janssen / Centocor, published 2021)

What was measured:
[1] = biological target: T1, Tau peptide encompassing residues 299-318 (human); test: isothermal titration calorimetry (ratio of the KD values against CBTAU-27.1)
T1 construct: also called Tau protein (peptide)
T1 peptide: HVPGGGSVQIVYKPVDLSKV

[2] = biological target: T1, Tau peptide encompassing residues …; test: isothermal titration calorimetry, peptide in cell titrated with IgG, PBS pH 7.4, one set of sites model
Description: Affinities of the binding molecules of the present invention were determined using a Microcal Auto-iTC200 isothermal titration calorimeter (Malvern). Tau and tau antibodies were dialysed to PBS, pH 7.4 to ensure perfect buffer matching conditions. […] Data was fitted according to a one set of sites model using Microcal PEAQ-ITC Analysis Software (Malvern).

B1: antibody of the present invention (antibody, V domains shown)
VH: QVQLVESGPEMRKPGESLKISCKTSGYIFSDYWTAWVRQLPGKGLQWMGIIYSGDSDTRYHPSVQGHVTMSTDSSLTTAYLQWSSLKASDTGIYYCARLDARVDAGWQLDSWGQGTLVTVSS
VL: DIQLTQSPDSLAVSLGERATINCKSSQSVFYRDNNKNYLAWYQHKSGQPPKLLFFWASSRESGVSDRFSGSGSGTDFTLTIDNLQAEDVALYYCQHYFNIPHNFGQGTKLEIK
notes: also called antibody according to the present invention
What does the source list for B1?
fold improvement in affinity relative to CBTAU-27.1 [1]: 50 fold; Kd [2]: 12.8 nM
